From publication PMC6596994 (Nature, 2019)
Numbering of substitutions follows the chain as printed. Numbers in names are those of the source. Read-outs that look alike come from different tables or passages of the source. Ends that are not written are not given here.

T1: human STING CTT (residue 342 to 379, V343W), crystallised (human, UniProt Q86WV6 342-379, V343W)
T1 chain: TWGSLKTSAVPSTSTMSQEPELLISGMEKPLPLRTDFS

T2: human IRF-3 (residue 189–427) (human, UniProt Q14653 189-427)
T2 sequence: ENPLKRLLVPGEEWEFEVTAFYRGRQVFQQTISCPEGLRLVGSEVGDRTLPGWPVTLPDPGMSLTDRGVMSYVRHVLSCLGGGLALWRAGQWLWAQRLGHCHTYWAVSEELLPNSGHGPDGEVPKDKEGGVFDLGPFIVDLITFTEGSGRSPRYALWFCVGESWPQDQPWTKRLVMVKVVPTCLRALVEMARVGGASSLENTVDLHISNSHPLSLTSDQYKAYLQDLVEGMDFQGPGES

B1: Human TBK1 (1–657, S172A) (domain or fragment)
chain: MQSTSNHLWLLSDILGQGATANVFRGRHKKTGDLFAIKVFNNISFLRPVDVQMREFEVLKKLNHKNIVKLFAIEEETTTRHKVLIMEFCPCGSLYTVLEEPSNAYGLPESEFLIVLRDVVGGMNHLRENGIVHRDIKPGNIMRVIGEDGQSVYKLTDFGAARELEDDEQFVALYGTEEYLHPDMYERAVLRKDHQKKYGATVDLWSIGVTFYHAATGSLPFRPFEGPRRNKEVMYKIITGKPSGAISGVQKAENGPIDWSGDMPVSCSLSRGLQVLLTPVLANILEADQEKCWGFDQFFAETSDILHRMVIHVFSLQQMTAHKIYIHSYNTATIFHELVYKQTKIISSNQELIYEGRRLVLEPGRLAQHFPKTTEENPIFVVSREPLNTIGLIYEKISLPKVHPRYDLDGDASMAKAITGVVCYACRIASTLLLYQELMRKGIRWLIELIKDDYNETVHKKTEVVITLDFCIRNIEKTVKVYEKLMKINLEAAELGEISDIHTKLLRLSSSQGTIETSLQDIDSRLSPGGSLADAWAHQEGTHPKDRNVEKLQVLLNCMTEIYYQFKKDKAERRLAYNEEQIHKFDKQKLYYHATKAMTHFTDECVKKYEAFLNKSEEWIRKMLHLRKQLLSLTNQCFDIEEEVSKYQEYTNELQET
B2: hSTING (155–379), unphosphorylated (domain or fragment)
chain: VAHGLAWSYYIGYLRLILPELQARIRTYNQHYNNLLRGAVSQRLYILLPLDCGVPDNLSMADPNIRFLDKLPQQTGDHAGIKDRVYSNSIYELLENGQRAGTCVLEYATPLQTLFAMSQYSQAGFSREDRLEQAKLFCRTLEDILADAPESQNNCRLIAYQEPADDSSFSLSQEVLRHLRQEEKEEVTVGSLKTSAVPSTSTMSQEPELLISGMEKPLPLRTDFS
modifications: biotin on the Avi tag
B3: Mouse TBK1 (1–657, S172A) (domain or fragment)
chain: MQSTSNHLWLLSDILGQGATANVFRGRHKKTGDLYAVKVFNNISFLRPVDVQMREFEVLKKLNHKNIVKLFAIEEETTTRHKVLIMEFCPCGSLYTVLEEPSNAYGLPESEFLIVLRDVVGGMNHLRENGIVHRDIKPGNIMRVIGEDGQSVYKLTDFGAARELEDDEQFVALYGTEEYLHPDMYERAVLRKDHQKKYGATVDLWSVGVTFYHAATGSLPFRPFEGPRRNKEVMYKIITGKPSGAISGVQKAENGPIDWSGDMPLSCSLSQGLQALLTPVLANILEADQEKCWGFDQFFAETSDVLHRMVIHVFSLQHMTAHKIYIHSYNTAAVFHELVYKQTKIVSSNQELIYEGRRLVLELGRLAQHFPKTTEENPIFVTSREQLNTVGLRYEKISLPKIHPRYDLDGDASMAKAVTGVVCYACRTASTLLLYQELMRKGVRWLVELVKDDYNETVHKKTEVVITLDFCIRNIEKTVKVYEKLMKVNLEAAELGEISDIHTKLLRLSSSQGTIESSLQDISSRLSPGGLLADTWAHQEGTHPRDRNVEKLQVLLNCITEIYYQFKKDKAERRLAYNEEQIHKFDKQKLYYHATKAMSHFSEECVRKYEAFKDKSEEWMRKMLHLRKQLLSLTNQCFDIEEEVSKYQDYTNELQET
B4: hSTING (155–379) L374A (domain or fragment)
chain: B2 chain with L220A
modifications: biotin on the Avi tag
B5: hSTING (155–379, T376E) (domain or fragment)
chain: B2 chain with T222E
modifications: biotin on the Avi tag
B6: hSTING (155–379, T376E F378M S379W), biotin-Avi-His6-SUMO fusion (domain or fragment)
chain: B2 chain with T222E, F224M, S225W
modifications: biotin on the Avi tag

Experiments:
[1] = target: p-hSTING (155–379) (human) (UniProt Q86WV6); experiment: SPR
hSTING (155–379) P373A = hSTING (155–379) P373A (human, UniProt Q86WV6 155-379, P373A, biotin on the Avi tag); experiment: SPR
hSTING (155–379) L372A = hSTING (155–379) L372A (human, UniProt Q86WV6 155-379, L372A, biotin on the Avi tag); experiment: SPR
[2] = target: B3; experiment: SPR
[3] = target: B1; experiment: SPR
[4] = target: B3; experiment: SPR; remark: listed apart in the source
[5] = target: B1; experiment: SPR; remark: listed apart in the source
crystal structure = target: the molecule itself; experiment: crystal structure
[6] = target: T1, human STING CTT (residue 342 to 379, …); experiment: crystal structure
[7] = target: T2, human IRF-3 (residue 189–427); experiment: SPR

Molecule	Kd [4] [µM]	Kd [5] [µM]	also measured
human TBK1 K584A (from UniProt Q9UHD2 1-657) (domain or fragment)	–	–	fold reduction of the binding affinity against wild type TBK1 [1]: 20 fold
human TBK1 Q581A (from UniProt Q9UHD2 1-657) (domain or fragment)	–	–	fold reduction of the binding affinity against wild type TBK1 [1]: 20 fold
B1	–	–	fold reduction of the binding affinity against wild type STING (hSTING (155–379) P373A): ~10 fold; fold reduction of the binding affinity against wild type STING (hSTING (155–379) L372A): ~10 fold
B2	~170	~290	Kd [2]: ~260 µM; Kd [3]: ~230 µM
B3	–	–	stoichiometry N (crystal structure): 2; stoichiometry N [6]: 1 TBK1 chain per STING peptide (2:2)
B4	–	–	binding result [7]: binds
SGMEKPLPLREDWM (also: biotin on the Avi tag) [hSTING (366–379, T376E F378W 3379M)]	43.9	–	–
STSTMSQEPELLISGMEKPLPLRTDFS [p-hSTING (353–379)]	25.1	22.6	–
B5	~62	–	–
TWGSLKTSAVPSTSTMSQEPELLISGMEKPLPLRTDFS [p-hSTING (342–379)]	15.3	16.8	–
SGMEKPLPLREDWE (also: biotin on the Avi tag) [hSTING (366–379, T376E F378W S379E)]	~127	–	–
SGMEKPLPLREDWF (also: biotin on the Avi tag) [hSTING (366–379, T376E F378W S379F)]	27.1	–	–
B6	1.2	1.4	–
SGMEKPLPLREDWI (also: biotin on the Avi tag) [hSTING (366–379, T376E F378W S379I)]	~59	–	–
SGMEKPLPLRTDFS [p-hSTING (366–379)]	30.8	35.6	–
